Assay results: US20180327493A1
Each block holds one binder with its values, some of them ahead of it.

Molecular target: human CD84 on cells (primary CLL cells, Ramos cells, Daudi cells) (human), Q9UIB8
Assay: cell-based or functional assay

human CD84 on cells (primary CLL cells, Ramos cells, Daudi cells) (human), Q9UIB8, sequence (Q9UIB8 22-345): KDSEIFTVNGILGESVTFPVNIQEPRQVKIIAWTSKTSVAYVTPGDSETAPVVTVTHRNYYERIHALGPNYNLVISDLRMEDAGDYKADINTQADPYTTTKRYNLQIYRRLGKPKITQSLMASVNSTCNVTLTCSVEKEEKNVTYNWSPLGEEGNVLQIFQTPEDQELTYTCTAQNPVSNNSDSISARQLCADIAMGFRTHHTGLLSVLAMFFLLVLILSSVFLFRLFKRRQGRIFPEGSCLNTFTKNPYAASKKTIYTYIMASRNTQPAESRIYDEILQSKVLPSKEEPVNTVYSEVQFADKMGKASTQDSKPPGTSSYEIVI

% apoptosis, Ramos cells (Magic Red, FACS): 45 % apoptosis | % apoptosis, purified CLL cells (Magic Red, FACS): 73 % apoptosis
B1: anti-CD84 antibody from the B1 hybridoma (antibody)
heavy: EVKLVESGGGLVQPGGSRKLSCAASGFTFSSFGMHWVRQAPEKGLEWVAYISSGSSTIYYADTVKGRFTISRDNPKNTLFLQMTSLRSEDTAMYYCARWGWTGTGLDYWGQGTTLTVSSFEAKTTPPSVYPLAPGSAAQTNSMVTLGCLVKGYFPEPVTVTWNSGSLSSGVHTFPAVLQSDLYTLSSSVTVPSSTWPSETVTCNVAHPASSTKVDKKIVPRDCGCKPCICTVPEVSSVFIFPPKPKDVLTITLTPKVTCVVVDISKDDPEVQFSWFVDDVEVHTAQTQPREEQFNSTFRSVSELPIMHQDWLNGKEFKCRVNSAAFPAPIEKTISKTKGRPKAPQVYTIPPPKEQMAKDKVSLTCMITDFFPEDITVEWQWNGQPAENYKNTQPIMDTDGSYFVYSKLNVQKSNWEAGNTFTCSVLHEGLHNHHTEKSLSHSPGK
light: DIVLTQSPALMAASPGEKVTITCSVSSSISSSNLHWYQQKSETSPKPWIYGTSNLASGVPVRFSGSGSGTSYSLTISSMEAEDAATYYCQQWSSYPFTFGSGTKLEIKRRTRADAAPTVSIFPPSSEQLTSGGASVVCFLNNFYPKDINVKWKIDGSERQNGVLNSWTDQDSKDSTYSMSSTLTLTKDEYERHNSYTCEATHKTSTSPIVKSFNRNEC

% apoptosis, Ramos cells (Magic Red, FACS): 39 % apoptosis | % apoptosis, purified CLL cells (Magic Red, FACS): 75 % apoptosis | annexin positive total population of CLL cells (Annexin 7AAD staining): 55.8%
B2: anti-CD84 antibody from the B4 hybridoma (antibody)
heavy: EVKLVESGAELARPGASVKLSCKASGYTFTSYWMQWVKQRPGQGLEWIGAIYPGDGDTRYTQKFKGKATLTADKSSSTAYMQLSSLASEDSAVYYCARLLRTYWYFDVWGAGTTVTVSSFEAKTTAPSVYPLAPVCGDTTGSSVTLGCLVKGYFPEPVTLTWNSGSLSSGVHTFPAVLQSDLYTLSSSVTVTSSTWPSQSITCNVAHPASSTKVDKKIEPRGPTIKPCPPCKCPAPNLLGGPSVFIFPPKIKDVLMISLSPIVTCVVVDVSEDDPDVQISWFVNNVEVHTAQTQTHREDYNSTLRVVSALPIQHQDWMSGKEFKCKVNNKDLPAPIERTISKPKGSVRAPQVYVLPPPEEEMTKKQVTLTCMVTDFMPEDIYVEWTNNGKTELNYKNTEPVLDSDGSYFMYSKLRVEKKNWVERNSYSCSVVHEGLHNHHTTKSFSRTPGK
light: DIVLTQSHKFMSTSVGDRVSITCKASQDVGTAVAWYQQKPGQSPKLLIYWASTRHTGVPDRFTGSGSGTDFTLTISNVQSEDLADYFCQQYSSYPYTFGGGTKLELKRRTRADAAPTVSIFPPSSEQLTSGGASVVCFLNNFYPKDINVKWKIDGSERQNGVLNSWTDQDSKDSTYSMSSTLTLTKDEYERHNSYTCEATHKTSTSPIVKSFNRNEC
